One assay concerns the target T1, HLA-A*02:01 (human).
T1 construct: whole, on cells; Empty class I molecule on TAP-deficient T2-A24 cells; detected with anti-HLA-A02 antibody BB7.2
Nature of the assay: T2-A24 MHC class I stabilization, flow cytometry, anti-HLA-A02 BB7.2-FITC, peptide 100 ug/mL.

A further assay concerns the target T2, HLA-A*24:02 (human).
T2 construct: whole, on cells; Empty class I molecule on T2-A24 cells
Nature of the assay: T2-A24 MHC class I stabilization, flow cytometry, anti-HLA-A24 17A10-FITC, peptide 100 ug/mL.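 Also: peptide exposure stabilizes otherwise empty class I molecules on T2 cell surfaces, so surface class I level reflects how strongly the peptide binds.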

This is an account of results in patent US20170360911A1 (SAPPORO MEDICAL UNIVERSITY, published 2017).

Protocol for HLA-A*24:02: T2 cells can usually only express a low level of empty MHC class I molecules on the cell surface. However, when a peptide that can bind to the MHC class I molecule is added, the empty MHC class I molecule binds to the peptide and can be present on the cell surface in a stable manner. Therefore, the cell surface MHC class I expression level depends on the MHC class I binding affinity of a peptide.
The T2-A24 cells were subcultured at 37° C. under 5% CO₂. […] These peptides were dissolved in DMSO and further diluted by 200 times with RPMI 160 medium. A cell suspension and the peptide solution were mixed and cultured under conditions of 5% CO₂ and 26° C. for 16 to 18 hours. Co-culturing was carried out at a temperature of 37° C. for a further 3 hours, the supernatant was then removed by centrifuging, and cells were isolated. […] Subsequently, the cells were washed with 3% FBS-containing PBS, 4% paraformaldehyde phosphate buffer was added, and the mixture was allowed to stand at room temperature for 10 minutes to thus fix the cells. The fixed cells were subjected to measurement of FITC fluorescence intensity by a flow cytometer (FACScan). The mean fluorescence intensity (MFI) was calculated as a solvent ratio.

Turning to PLLSLPLSL [As405_9], the “MFI (solvent ratio)” value in the assay with HLA-A*02:01 is 2.2 ratio to solvent; with HLA-A*24:02 it was 2.8 ratio to solvent.
As to SILCAKQLV [As152_9], the “MFI (solvent ratio)” value with HLA-A*02:01 was 1.8 ratio to solvent.
Regarding LMDINGCAAI [As280_10], the figures for the “MFI (solvent ratio)” value in the assay with HLA-A*02:01 and with HLA-A*24:02 were 3.1 ratio to solvent and 1.2 ratio to solvent, respectively.
Consider LLLNHGAARI [As310_10], for which the “MFI (solvent ratio)” value with HLA-A*24:02 was 1.2 ratio to solvent.
Take TLMHLSRCAI [As383_10_5L]: the “MFI (solvent ratio)” value with HLA-A*02:01 is 2.4 ratio to solvent; with HLA-A*24:02, 1 ratio to solvent.
RIYPPQFHKV [As318_10]: the “MFI (solvent ratio)” value in the assay with HLA-A*24:02 is 3.6 ratio to solvent.
On to AIPLLSLPL [As403_9], for which the “MFI (solvent ratio)” value was 0.9 ratio to solvent with HLA-A*02:01 and 1.1 ratio to solvent with HLA-A*24:02.
Take GLSELVAFYV [As186_10]: the “MFI (solvent ratio)” value in the assay with HLA-A*02:01 was 2.6 ratio to solvent; with HLA-A*24:02, 1.1 ratio to solvent.
The corresponding values for KLKSSWATGL [As70_10] are 1.1 ratio to solvent and 1 ratio to solvent.
YLLLEPEGII [As416_10]: the “MFI (solvent ratio)” value with HLA-A*02:01 was 2.8 ratio to solvent.

B1: As271_10 (peptide)
peptide: MLEAGAEANL
notes: read as 39 from its place between 38 and 40
As to B1, the “MFI (solvent ratio)” value with HLA-A*02:01 is 1 ratio to solvent; with HLA-A*24:02 it was 1.2 ratio to solvent.
With DFYHSLFTV [As368_9], the entries for the “MFI (solvent ratio)” value in the assay with HLA-A*02:01 and in the assay with HLA-A*24:02 were 1 ratio to solvent and 1.1 ratio to solvent, respectively.
For ILCDRGAKL [As125_9] the same measures were 1.9 ratio to solvent and 1.8 ratio to solvent.
Regarding HFGLSELVAFYV [As184_12], the results for the “MFI (solvent ratio)” value with HLA-A*02:01 and with HLA-A*24:02 were 3.1 ratio to solvent and 3.2 ratio to solvent, respectively.
With GYWLPSYKL [As63_9], the “MFI (solvent ratio)” value with HLA-A*02:01 was 1.1 ratio to solvent; with HLA-A*24:02, 1.2 ratio to solvent.
In the case of SLPLSLKKYL [As408_10], the “MFI (solvent ratio)” value in the assay with HLA-A*02:01 and in the assay with HLA-A*24:02 was 1 ratio to solvent in each case.
Consider AFYVEHGAIF [As192_10], for which the “MFI (solvent ratio)” value with HLA-A*02:01 was 1.1 ratio to solvent; in the assay with HLA-A*24:02, 2.2 ratio to solvent.
For IYPPQFHKV (also called ASB4 peptide) [IV9] the same measures were 0.9 ratio to solvent and 3.3 ratio to solvent.
The corresponding values for DFGKLKAIL [As29_9] are 1 ratio to solvent and 1 ratio to solvent.
KLVKRNFLEAL [As15_11]: the “MFI (solvent ratio)” value with HLA-A*02:01 and with HLA-A*24:02 was 1 ratio to solvent throughout.
As to AILIQRQIDV [As35_10], the “MFI (solvent ratio)” value with HLA-A*02:01 is 3.4 ratio to solvent; with HLA-A*24:02, 1.1 ratio to solvent.
Take PLAIAAYWAL [As211_10]: the entries for the “MFI (solvent ratio)” value in the assay with HLA-A*02:01 and with HLA-A*24:02 were 1.1 ratio to solvent and 2.1 ratio to solvent, respectively.
Turning to FEVEDENMVL [As48_10], the “MFI (solvent ratio)” value in the assay with HLA-A*02:01 is 1 ratio to solvent.
In the case of CYQLLLNHGA [As307_10], the “MFI (solvent ratio)” value in the assay with HLA-A*02:01 is 2.5 ratio to solvent; with HLA-A*24:02 it was 1.9 ratio to solvent.
As for QIDVDTVFEV (41-50 follows from start and length) [As41_10], the “MFI (solvent ratio)” value in the assay with HLA-A*02:01 is 1.2 ratio to solvent; with HLA-A*24:02, 1.1 ratio to solvent.
In the case of HFCTTPSSIL [As145_10], the entries for the “MFI (solvent ratio)” value in the assay with HLA-A*02:01 and in the assay with HLA-A*24:02 were 1 ratio to solvent and 1.2 ratio to solvent, respectively.
As for RMLLDYKAEV [As236_10], the “MFI (solvent ratio)” value with HLA-A*02:01 was 3.3 ratio to solvent; with HLA-A*24:02, 1 ratio to solvent.
For LLNHGAARI [As311_9] the same measures were 0.9 ratio to solvent and 0.9 ratio to solvent.
As for LVLLDHNATI [As92_10], the “MFI (solvent ratio)” value with HLA-A*02:01 is 2.6 ratio to solvent; in the assay with HLA-A*24:02, 1.1 ratio to solvent.
As for SVLFGHVECL [As82_10], the “MFI (solvent ratio)” value with HLA-A*02:01 is 3.3 ratio to solvent; with HLA-A*24:02, 2.7 ratio to solvent.
For HVECLLVLL [As87_9] the same measures were 1.5 ratio to solvent and 1.6 ratio to solvent.
Regarding QYVLKVTSV [As290_9], the “MFI (solvent ratio)” value in the assay with HLA-A*02:01 was 1 ratio to solvent.
HVLMHMMLEA [As265_10]: the “MFI (solvent ratio)” value in the assay with HLA-A*02:01 is 2 ratio to solvent.
For ATGLHLSVLF [As76_10], the “MFI (solvent ratio)” value is 0.9 ratio to solvent in the assay with HLA-A*02:01 and 2.1 ratio to solvent with HLA-A*24:02.
Consider VVVNAYEHI [As340_9], for which the “MFI (solvent ratio)” value in the assay with HLA-A*02:01 was 0.9 ratio to solvent; with HLA-A*24:02, 1 ratio to solvent.
On to HLSVLFGHV [As80_9], for which the figures for the “MFI (solvent ratio)” value with HLA-A*02:01 and in the assay with HLA-A*24:02 were 1.6 ratio to solvent and 2.1 ratio to solvent, respectively.
For KQLVWRGANV [As157_10] the same measures were 1.2 ratio to solvent and 1 ratio to solvent.
For IQYVLKVTSV [As289_10], the “MFI (solvent ratio)” value is 1.2 ratio to solvent with HLA-A*02:01 and 1.5 ratio to solvent in the assay with HLA-A*24:02.
As for CYSLSGHTAL [As135_10], the “MFI (solvent ratio)” value with HLA-A*02:01 was 1.6 ratio to solvent; with HLA-A*24:02, 2.4 ratio to solvent.
For KYWDFYHSL [As365_9] the same measures were 1.1 ratio to solvent and 2.5 ratio to solvent.
For KYWDFYHSLFTV [As365_12] the same measures were 1 ratio to solvent and 2.4 ratio to solvent.
Regarding KILCDRGAKL [As124_10], the “MFI (solvent ratio)” value with HLA-A*02:01 was 1.6 ratio to solvent; with HLA-A*24:02, 2.2 ratio to solvent.
Consider AAQPEICYQLL [As301_11], for which the entries for the “MFI (solvent ratio)” value in the assay with HLA-A*02:01 and in the assay with HLA-A*24:02 were 2.6 ratio to solvent and 2 ratio to solvent, respectively.
As for VLFGHVECLL [As83_10], the figures for the “MFI (solvent ratio)” value with HLA-A*02:01 and with HLA-A*24:02 were 3.6 ratio to solvent and 2.8 ratio to solvent, respectively.
